The values below come from US20240209099A1 (SUZHOU TRANSCENTA THERAPEUTICS, published 2024).

The target of assay [1] is T1, Recombinant Rhesus macaque VEGFR2/KDR Protein, His tag (rhesus macaque).
T1 construct: Expressed in HEK293, bought from ACRO Biosystems; also called rhesus VEGFR2-his; rhesus VEGFR2
T1 chain: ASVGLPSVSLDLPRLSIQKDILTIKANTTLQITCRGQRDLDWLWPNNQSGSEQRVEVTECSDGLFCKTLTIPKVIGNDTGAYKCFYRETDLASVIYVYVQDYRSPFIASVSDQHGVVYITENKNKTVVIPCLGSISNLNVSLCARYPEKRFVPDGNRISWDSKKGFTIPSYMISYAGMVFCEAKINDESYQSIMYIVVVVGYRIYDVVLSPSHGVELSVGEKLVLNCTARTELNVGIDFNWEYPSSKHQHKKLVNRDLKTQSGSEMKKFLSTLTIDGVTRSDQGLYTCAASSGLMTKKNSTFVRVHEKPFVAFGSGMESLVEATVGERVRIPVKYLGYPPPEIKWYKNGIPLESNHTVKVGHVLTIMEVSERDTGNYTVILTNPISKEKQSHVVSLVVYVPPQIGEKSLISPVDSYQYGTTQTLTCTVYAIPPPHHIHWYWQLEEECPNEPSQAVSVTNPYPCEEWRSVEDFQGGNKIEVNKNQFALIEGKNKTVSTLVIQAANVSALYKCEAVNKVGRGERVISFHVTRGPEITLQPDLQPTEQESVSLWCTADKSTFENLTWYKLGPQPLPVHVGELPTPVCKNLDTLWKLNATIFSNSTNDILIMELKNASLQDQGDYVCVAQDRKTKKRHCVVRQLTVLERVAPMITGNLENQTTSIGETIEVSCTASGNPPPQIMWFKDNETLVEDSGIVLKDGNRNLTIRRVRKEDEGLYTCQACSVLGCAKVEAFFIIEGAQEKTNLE
The experiment in a line: ELISA, rhesus VEGFR2-his coated, anti-human Fc-HRP; antibody made in CHO cells. On the technique in general: ELISA stands for enzyme-linked immunosorbent assay.

Assay [2] deals with T2, Recombinant Human VEGFR2/KDR Protein, His tag (hVEGFR2-his) (human, UniProt P35968 20-764).
T2 construct: Expressed in HEK293, bought from ACRO Biosystems; also called human VEGFR2-his; Human VEGFR2/KDR-His
Kind of assay: competition ELISA: VEGF-A coated (0.25 ug/ml), antibody titrated together with 1 ug/ml human VEGFR2, detection with mouse anti-VEGFR2 serum and anti-mouse Fc-HRP; blocked ligand VEGF-A. Here is the method: (§1) For this assay, 0.25 μg/ml VEGF-A was coated on ELISA plate before a mixture of chimeric antibodies and VEGFR2 were added. To detect free VEGF-A (not bind to VEGFR2), 1:1000 diluted mouse serum (mouse previous immunized with human VEGFR2) were added and HRP conjugated goat anti-mouse Fc antibody was used as secondary antibody.
(§2) Same protocol of Example 10. Briefly, 0.25 μg/ml VEGF-A was coated overnight at 4° C. After blocking, serial diluted 54-H2L1, 48-H3L1, Ramucirumab and 1 μg/ml human VEGFR2 or rhesus VEGFR2 were added at the same time for 2 hour-incubation. After wash, mouse serum containing polyclone VEGFR2 antibody and HRP conjugated goat anti-mouse Fc antibody were added for detection of free VEGF-A coated on the plates (see FIGS. 13A and 13B).

Assay [3] addresses T2, Recombinant Human VEGFR2/KDR Protein, …. Kind of assay: ELISA, hVEGFR2-his coated, anti-human Fc-HRP; antibody made in 293T cells. On the procedure:
Same protocol of Example 4 except using HRP conjugated goat anti-human Fc antibody as secondary antibody. Binding to hVEGFR2-his and rhesus VEGFR2-his (Acrobiosystems, Cat #VE2-C52H3) were also analyzed head-to-head.
Same protocol of Example 9.

A further assay has as its target T3, human VEGFR3 protein (human, UniProt P35916 25-776).
T3 construct: also called Sino Biological 10806-H08H
T3 sequence (looked up): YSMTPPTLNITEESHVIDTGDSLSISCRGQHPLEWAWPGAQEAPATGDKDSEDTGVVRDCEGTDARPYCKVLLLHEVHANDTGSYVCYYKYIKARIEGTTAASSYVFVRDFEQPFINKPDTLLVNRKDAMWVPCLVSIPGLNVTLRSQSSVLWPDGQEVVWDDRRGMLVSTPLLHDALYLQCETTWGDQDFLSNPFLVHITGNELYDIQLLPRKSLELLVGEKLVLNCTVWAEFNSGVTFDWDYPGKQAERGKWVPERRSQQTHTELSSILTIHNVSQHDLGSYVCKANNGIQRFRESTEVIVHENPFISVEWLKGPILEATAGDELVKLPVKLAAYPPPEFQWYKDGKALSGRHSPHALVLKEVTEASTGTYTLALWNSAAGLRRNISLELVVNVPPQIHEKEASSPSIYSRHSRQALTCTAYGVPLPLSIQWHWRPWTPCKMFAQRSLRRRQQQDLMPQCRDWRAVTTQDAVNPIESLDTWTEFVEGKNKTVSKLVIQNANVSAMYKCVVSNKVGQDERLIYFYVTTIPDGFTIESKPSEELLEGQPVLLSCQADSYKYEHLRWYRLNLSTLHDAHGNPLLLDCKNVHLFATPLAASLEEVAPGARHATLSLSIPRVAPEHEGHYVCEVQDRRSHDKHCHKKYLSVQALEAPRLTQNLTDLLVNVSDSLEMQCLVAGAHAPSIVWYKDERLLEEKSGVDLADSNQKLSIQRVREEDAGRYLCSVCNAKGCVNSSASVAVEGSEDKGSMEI
The experiment in a line: ELISA, 1 µg/ml antigen coated, 1 µg/ml antibody. Here is the method: (§3) Briefly, 1 μg/ml human VEGFR1 (Sino Biological, cat #10136-H08H), VEGFR2 (Acrobiosystem, cat #KDR-H5227) and VEGFR3 (Sino Biological, cat #10806-H08H) protein were coated overnight at 4° C. 1 μg/ml humanized antibodies (48-H3L1 and 54-H2L1, produced in CHO cells or Ramucirumab from Eli Lilly Germany, lot #20150819) were added for binding to coated antigen. Secondary antibody HRP conjugated goat anti-human Fc antibody were added for detection of binding signal.

The next assay has as its target T4, human VEGFR1 protein (human, UniProt P17948 27-756).
T4 construct: also called Sino Biological 10136-H08H
The experiment in a line: ELISA, 1 µg/ml antigen coated, 1 µg/ml antibody. Here is the method: as §3

Assay [4] deals with T1, Recombinant Rhesus macaque VEGFR2/KDR …. Kind of assay: competition ELISA: VEGF-A coated (0.25 ug/ml), antibody titrated together with 1 ug/ml rhesus VEGFR2, detection with mouse anti-VEGFR2 serum and anti-mouse Fc-HRP; blocked ligand VEGF-A. On the procedure:
as §1, §2

In assay [5] the target is T2, Recombinant Human VEGFR2/KDR Protein, …. Kind of assay: ELISA, human VEGFR2-his coated, anti-human Fc-HRP; antibody made in CHO cells.

T4 sequence (P17948 27-756 limits assumed): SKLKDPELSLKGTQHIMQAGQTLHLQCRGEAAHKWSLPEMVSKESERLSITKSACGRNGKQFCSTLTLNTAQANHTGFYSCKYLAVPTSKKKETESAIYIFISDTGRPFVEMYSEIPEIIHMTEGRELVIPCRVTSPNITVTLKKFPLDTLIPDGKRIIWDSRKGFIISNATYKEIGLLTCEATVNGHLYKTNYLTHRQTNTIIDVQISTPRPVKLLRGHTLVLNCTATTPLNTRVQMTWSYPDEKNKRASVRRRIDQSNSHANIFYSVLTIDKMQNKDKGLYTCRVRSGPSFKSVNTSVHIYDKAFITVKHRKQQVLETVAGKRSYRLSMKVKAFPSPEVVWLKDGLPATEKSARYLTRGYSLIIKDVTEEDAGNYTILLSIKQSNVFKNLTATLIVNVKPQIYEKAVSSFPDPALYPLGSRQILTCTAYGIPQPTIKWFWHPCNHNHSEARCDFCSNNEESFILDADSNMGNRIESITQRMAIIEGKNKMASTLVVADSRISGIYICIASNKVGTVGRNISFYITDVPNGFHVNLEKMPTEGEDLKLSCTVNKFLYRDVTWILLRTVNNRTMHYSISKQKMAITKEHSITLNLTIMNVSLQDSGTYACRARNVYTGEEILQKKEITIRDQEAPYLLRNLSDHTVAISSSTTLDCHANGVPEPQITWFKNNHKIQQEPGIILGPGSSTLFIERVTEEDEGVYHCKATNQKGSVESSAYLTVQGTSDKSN

B1: 54-H2L1 (humanized Mab54) (antibody, human IgG1, V domains shown)
VH: EVQLVESGGGLVKPGGSLRLSCAASGFTFSMYGMSWVRQAPGKRLEWVASISIGGSYTYYADSVKGRFTISRDNAKNTLYLQMNSLRAEDTAVYYCARELDGNYDYWGQGTTLTVSS
VL: DIVITQDELSLPVTFGESVSISCRSSKSLLYKDGKTYLNWFLQRPGQSPQLLIYLMSTRASGVSDRFSGSGSGTDFTLKISRVEAEDVGIYYCQQLVEYPFTFGSGTKLEIK
notes: also called 54-H2L1 (CHO); humanized 54 variant H2L1
A word on the EC50: it is the midpoint of the concentration-response curve. The IC50 is the midpoint of a concentration-inhibition curve. Turning to B1, the EC50 was found to be 0.0111 µg/mL in assay [1], 0.0288 µg/mL in assay [3] and 0.00755 µg/mL in assay [5]. Also, the IC50 was 0.654 µg/mL in assay [2] and 0.805 µg/mL in assay [4]. The binding result with human VEGFR3 protein and with human VEGFR1 protein was “no binding (tested: 1 µg/ml)” in each case.
